Measurements taken from the supplement of paper PMC12042874.
± gives the uncertainty stated by the source.

Experiment: amyloid nucleation score (Sup35N fusion, yeast selection) (log enrichment); library NNK3; higher = more nucleation; inactive = no reads after selection
Procedure, shortened: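 Peptides of 20 random codons fused to Sup35N were expressed in psi-negative yeast, induced 24 hours with 100 μM copper sulfate, then grown 7 days at 30°C on medium lacking adenine and uracil. Input and output plasmid inserts were Illumina-sequenced. Nucleation score is the DiMSum log enrichment of output over input reads, centred on the mode score of non-aggregating sequences, excluding sequences with under 100 input reads. Random libraries had three technical output replicates.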

Row | Substance | amyloid nucleation score
1 | IRQGNVYK | inactive
2 | IRRLDEVNEWANSYKLWKKQ | inactive
3 | IRSNGTFTPWEPLSVIWCTK | inactive
4 | IRSYERVSRLTGVVGSTSVD | inactive
5 | IRVIISGVLGTELKNALAKY | inactive
6 | IRVMNEMYLFLNRVYFAFSY | inactive
7 | IRYLYLFVYSSRLSHIPGKN | inactive
8 | IRYSGFPYPSNLWHTSATLY | inactive
9 | ISCMVFANHR | inactive
10 | ISCPLYQGMGHLIH | inactive
11 | ISDDICSFVAHSAILFGRQM | inactive
12 | ISESN | inactive
13 | ISHFLE | inactive
14 | ISIGYEQFLDSCNLLSIYLT | inactive
15 | ISKSDLSLFN | inactive
16 | ISLKSLFVFHNLSVDIWVQR | inactive
17 | ISMLMFDLA | inactive
18 | ISNGVNPGVFDAVSWLDWAV | inactive
19 | ISPSYVQSDQFIGRTHVS | inactive
20 | ISQFLGKFTFCNSALHFFGA | inactive
21 | ISQHMANFYNSVVVVCILED | 3.19 ± 0.075
22 | ISQLIEHRRAESCLRPKGRQ | inactive
23 | ISTDDKIIGST | inactive

Row | Substance | amyloid nucleation score
24 | ISTLGYFAELVI | inactive
25 | ISWYVWRVMYMSCGWSIVFR | inactive
26 | ITARLVTS | inactive
27 | ITIGTTIGDLSYR | inactive
28 | ITKKRYNCRMFLIT | inactive
29 | ITLLCTLYYGQPTLGVDLVL | inactive
30 | ITMLMLATVKYSFYADLRFL | inactive
31 | ITRTSDLFMLGSLINRGIAA | inactive
32 | ITTCLMYHRLCECGSKVLGL | inactive
33 | IVCNIN | -0.036 ± 0.55
34 | IVFLLLVRLLVFIP | inactive
35 | IVGAAVRGKMRFSMSRAWLG | inactive
36 | IVHVSLWKMSISPIWEWSMI | 0.006 ± 0.37
37 | IVKVLNGFKTRVSSVCVTNG | inactive
38 | IVLNIMHNVSHFLGLYVEG | inactive
39 | IVQTLYNLAAVHSTWAIRFQ | -0.142 ± 0.4
40 | IVQYELTACDESAVKWIGMP | inactive
41 | IVRMNQCSMGCLRVAMSSS | inactive
42 | IVRRGLKMCG | inactive
43 | IVSLALSFFLDHSQVFCLNS | 1.36 ± 0.15
44 | IVSMDQESTLQWNVPGYVLL | inactive
45 | IVSNTTPTQPTSVLVNYSVR | inactive
46 | IVVANMWLLKKNYLRMELFA | inactive

Row | Substance | amyloid nucleation score
47 | IVYGPCYTLYVRCSVFSLSK | 2.31 ± 0.063
48 | IWISLGAMIMFMVN | inactive
49 | IWNKFGIIFYVVYYSIRTNL | inactive
50 | IWVGRTDFWFWHVTGEDCLG | inactive
51 | IWWNHCEHHMLRSSLRVRAY | inactive
52 | IWWVSK | inactive
53 | IYAGS | -0.633 ± 0.96
54 | IYCPNIILLVKRHGVFQMFL | 2.3 ± 0.072
55 | IYDCNRDIGDVLTSSDPPHA | inactive
56 | IYDSRWTTNDSSCTTVFTEQ | inactive
57 | IYILYVMDF | inactive
58 | IYIRVRMDEFLMSVTTIARG | inactive
59 | IYKKNMAGRVDQKIVTQDPP | inactive
60 | IYLLGMYIKACSG | inactive
61 | IYNPRSNINQFPDTFEPDQM | inactive
62 | IYSIKSV | -0.357 ± 0.68
63 | IYSNSLACDRSGFFKASSSQ | -0.998 ± 1.2
64 | IYSNSPDRPEFHCNSRCGDG | inactive
65 | IYSRELHVCAVSIADFIWFW | inactive
66 | IYSVTMTRHVFFNGFQVQLV | inactive
67 | IYSYTVFPSFGGMLCMVLVG | inactive
68 | IYVHNYFISVVIMVYFTMLP | inactive
69 | IYVLNLMLFVFCRNVLCDGY | inactive

Row | Substance | amyloid nucleation score
70 | IYVVRIYVSWVNILHALVYS | inactive
71 | KACWLYLIFIFFGWVYSKTI | 0.745 ± 0.25
72 | KALTRRIILHWK | 0.711 ± 0.28
73 | KANRFRVVMLGVDGVCAFQS | inactive
74 | KASVSTRFMII | inactive
75 | KASWRMLC | inactive
76 | KCKANPEDNVRFLRLVYGAS | inactive
77 | KCLLV | inactive
78 | KCTGYAGCCWWT | inactive
79 | KDKACRNCHKGVMRVTWVK | 0.012 ± 0.87
80 | KDLYIIIITRMYRIFKS | inactive
81 | KDRSCNALWGLDCLYGNKGC | -0.197 ± 0.61
82 | KDVSMLSTVTRTPRMRRVST | inactive
83 | KEADDCVREAKFGAEFVTLR | inactive
84 | KEGNGMSFYN | inactive
85 | KEQDTQSIAQCNKTHRA | inactive
86 | KFFQIIRASVF | inactive
87 | KFFQTSLRTAIRLWKSAISC | inactive
88 | KFGHSVKSINLLNATTHVWI | -0.126 ± 0.47
89 | KFHWWDTCTDVKSRLKVDVE | inactive
90 | KFILFRVSVKGIRRFQVGR | 1.47 ± 0.14
91 | KFKENMYLTYSCLHKVIMRF | inactive
92 | KFSNSASFSGFYFNNYLSSQ | 0.95 ± 0.096

Row | Substance | amyloid nucleation score
93 | KGASIYMVTLFSSSNAKM | 1.28 ± 0.093
94 | KGEFIRPTSMVKYTDGLESG | inactive
95 | KGMFLVMSRLCPFISWSRSQ | inactive
96 | KGRMQVEWDFGISAYCGMML | -0.431 ± 1.1
97 | KGSLGVPWLLVNSGLINGC | inactive
98 | KGSTLVMLP | inactive
99 | KGSVRYIDCIVIL | 1.77 ± 0.063
100 | KGVFRNAFELFKYHFSHAGM | inactive
101 | KHLGKAKSSGST | inactive
102 | KHRYAYGRRTNCWASHYLRG | inactive
103 | KHSVSLECRIRSAGDTVGWF | inactive
104 | KIDLVGTLVMTIFNAQMQYE | 2.06 ± 0.083
105 | KIICRAWYMSVGERRA | -0.449 ± 1.4
106 | KIKSLELMYDISERNF | inactive
107 | KISETGRCNSLCW | inactive
108 | KKCHGMMCNTITRTINILC | inactive
109 | KKMHNVALGFMFIVVG | inactive
110 | KLASLFNYCSERKN | inactive
111 | KLGMSPSSLYSPAR | inactive
112 | KLQYYVALSAT | inactive
113 | KLRTSGAILVF | inactive
114 | KLTFNRLLKT | inactive
115 | KLVAGFPAGCTK | inactive

Row | Substance | amyloid nucleation score
116 | KLVFTIRVF | inactive
117 | KLYIALMDKYPGATSMFQPV | 1.18 ± 0.23
118 | KMDLTGWTI | inactive
119 | KMFWLVTHRLN | inactive
120 | KMKCRVIYVLSSLIYCM | inactive
121 | KMKIT | inactive
122 | KMLNYM | inactive
123 | KMRSSVYFLDYNWNKTLPCL | -0.541 ± 1.1
124 | KNGKWRGISSYRNRRFNTGI | inactive
125 | KNLDKLVKMYH | inactive
126 | KNLRVLGSSLIGLTLIECHG | -0.801 ± 1.1
127 | KNQNMMMSSQFSMYCWFRLT | inactive
128 | KNVSEEVGLSLVPSEGKSHL | inactive
129 | KPGIIIVFVGHG | inactive
130 | KPISRRGWPRPKAGRNEPPR | inactive
131 | KPLCLFQARRYRW | inactive
132 | KPQYENVMCY | inactive
133 | KPRILFQCPIRKVLRVGVKF | inactive
134 | KPRSC | inactive
135 | KPSRNESLQMALLSYIYLFR | inactive
136 | KQLDDPRQICIFYPT | inactive
137 | KQVNWS | inactive
138 | KRDIVFLCGDWVDSFTCSGG | 1.79 ± 0.075

Row | Substance | amyloid nucleation score
139 | KRFMDLTHIESSRAKVYRVT | inactive
140 | KRGLTGVSLVLDETVAVPSD | inactive
141 | KRITLWCLCFRSYDHEMMV | inactive
142 | KRNFGWSAIRVQFIDFCLKG | inactive
143 | KRRMRGALRVRVNSTHCWYV | inactive
144 | KRRSTRL | inactive
145 | KRSSSAAIKKRIIVQIDGNR | inactive
146 | KRVRVRFASAMHGLMSHPDT | inactive
147 | KSCHQSRFISDYRPAAPEDS | inactive
148 | KSDPPGTVLYYTLAQPLYLL | inactive
149 | KSEFSRSHWESDD | inactive
150 | KSIIYTILLVWFKYGVHSPL | inactive
151 | KSRSYPCIEPNV | inactive
152 | KSWYEFPKMLRNHRTYNQRL | inactive
153 | KTLTGQFGCSTTALCNDVEC | -0.515 ± 0.75
154 | KTMVYGIQANDGWLVHGGFL | inactive
155 | KVFPFEVEVLFFHGGDMSCG | -0.121 ± 0.36
156 | KVIRNTFIACCSV | 2.16 ± 0.07
157 | KVLLWPSWFK | inactive
158 | KVRNPWMRIDTVCRFFILVV | inactive
159 | KVSNTRLVRTINMSCGISYP | inactive
